The results in this text go back to US20230340146A1 (US Dept. of Health and Human Services, published 2023).

The target in assay [1] is T1, human GPC1 on cells (T3M4, KLM1, H8, 2B9) (human) (UniProt P35052).
T1 sequence (looked up): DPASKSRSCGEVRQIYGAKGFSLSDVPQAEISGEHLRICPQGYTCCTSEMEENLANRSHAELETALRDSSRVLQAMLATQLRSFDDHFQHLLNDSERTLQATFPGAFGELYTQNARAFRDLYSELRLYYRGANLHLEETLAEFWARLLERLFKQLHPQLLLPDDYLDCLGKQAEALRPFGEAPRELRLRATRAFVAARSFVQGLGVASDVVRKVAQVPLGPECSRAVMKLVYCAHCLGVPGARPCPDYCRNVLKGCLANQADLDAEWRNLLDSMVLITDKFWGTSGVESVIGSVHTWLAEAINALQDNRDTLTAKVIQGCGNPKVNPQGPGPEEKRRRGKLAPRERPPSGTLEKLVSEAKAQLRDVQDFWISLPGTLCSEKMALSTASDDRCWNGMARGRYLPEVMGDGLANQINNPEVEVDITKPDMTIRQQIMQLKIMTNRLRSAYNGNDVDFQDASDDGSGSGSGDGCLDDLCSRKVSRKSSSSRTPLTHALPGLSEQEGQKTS
Nature of the assay: flow cytometry on T3M4 pancreatic cancer cells, non-specific control IgG, goat anti-mouse IgG-PE. (Flow cytometry measures light scatter and fluorescence of single cells or particles in a stream.)

The target in assay [2] is T2, human glypican-2 (GPC2) (human, UniProt Q8N158 24-554, limits assumed).
T2 construct: Named through 'human GPC1 through GPC6' in the methods; also called human GPC2; other human glypican members
T2 sequence (looked up): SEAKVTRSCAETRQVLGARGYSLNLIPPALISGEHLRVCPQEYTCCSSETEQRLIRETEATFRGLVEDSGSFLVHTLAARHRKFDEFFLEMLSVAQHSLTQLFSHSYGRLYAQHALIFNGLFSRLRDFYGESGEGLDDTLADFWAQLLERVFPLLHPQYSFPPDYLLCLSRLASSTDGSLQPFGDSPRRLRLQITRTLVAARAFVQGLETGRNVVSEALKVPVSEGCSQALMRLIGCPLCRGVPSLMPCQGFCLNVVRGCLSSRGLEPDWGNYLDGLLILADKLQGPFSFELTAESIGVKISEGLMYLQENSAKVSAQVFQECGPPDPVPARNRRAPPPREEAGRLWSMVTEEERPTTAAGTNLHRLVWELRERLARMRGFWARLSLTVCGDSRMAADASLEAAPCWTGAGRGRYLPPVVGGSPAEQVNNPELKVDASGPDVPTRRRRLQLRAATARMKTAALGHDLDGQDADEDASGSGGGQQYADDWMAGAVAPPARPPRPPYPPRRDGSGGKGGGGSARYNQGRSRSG
Nature of the assay: ELISA on plate-coated human glypicans, goat anti-mouse IgG-HRP.

Assay [3] deals with T3, human glypican-3 (GPC3) (human, UniProt P51654 25-559, limits assumed).
T3 construct: Named through 'human GPC1 through GPC6' in the methods; also called human GPC3; other human glypican members
Described as above.

Assay [4] deals with T4, human glypican-5 (GPC5) (human, UniProt P78333 25-551, limits assumed).
T4 construct: Named through 'human GPC1 through GPC6' in the methods; also called human GPC5; other human glypican members
T4 sequence (looked up): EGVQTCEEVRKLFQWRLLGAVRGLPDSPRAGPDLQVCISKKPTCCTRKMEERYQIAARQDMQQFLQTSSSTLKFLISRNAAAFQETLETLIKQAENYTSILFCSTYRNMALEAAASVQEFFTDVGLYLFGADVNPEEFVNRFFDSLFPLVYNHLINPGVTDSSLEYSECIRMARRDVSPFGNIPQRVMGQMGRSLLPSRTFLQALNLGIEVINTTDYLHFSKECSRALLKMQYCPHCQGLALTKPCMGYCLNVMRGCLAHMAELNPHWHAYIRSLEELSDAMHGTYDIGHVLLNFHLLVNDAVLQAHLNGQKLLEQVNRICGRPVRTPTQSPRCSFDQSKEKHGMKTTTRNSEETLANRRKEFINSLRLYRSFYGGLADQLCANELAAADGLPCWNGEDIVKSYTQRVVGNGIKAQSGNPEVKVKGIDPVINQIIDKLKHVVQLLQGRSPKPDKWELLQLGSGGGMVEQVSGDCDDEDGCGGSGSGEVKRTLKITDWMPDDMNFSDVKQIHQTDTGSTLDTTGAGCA
Described as above.

In assay [5] the target is T5, human glypican-6 (GPC6) (human, UniProt Q9Y625 24-529, limits assumed).
T5 construct: Named through 'human GPC1 through GPC6' in the methods; also called human GPC6; other human glypican members
T5 sequence (looked up): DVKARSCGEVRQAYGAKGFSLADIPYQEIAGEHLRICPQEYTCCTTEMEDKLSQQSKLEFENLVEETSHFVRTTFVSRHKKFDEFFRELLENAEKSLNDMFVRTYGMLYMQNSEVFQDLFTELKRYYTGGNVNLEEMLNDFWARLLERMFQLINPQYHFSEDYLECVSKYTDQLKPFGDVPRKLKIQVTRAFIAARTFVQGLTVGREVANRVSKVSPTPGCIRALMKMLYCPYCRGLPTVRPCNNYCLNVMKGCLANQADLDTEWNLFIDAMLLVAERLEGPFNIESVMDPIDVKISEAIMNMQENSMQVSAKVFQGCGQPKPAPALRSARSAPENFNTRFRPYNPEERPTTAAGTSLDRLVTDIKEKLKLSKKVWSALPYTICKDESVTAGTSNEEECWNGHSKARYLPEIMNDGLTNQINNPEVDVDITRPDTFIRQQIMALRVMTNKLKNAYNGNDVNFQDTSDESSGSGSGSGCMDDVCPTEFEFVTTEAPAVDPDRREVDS
Described as above.

Another assay concerns the target T6, GPC1 peptide 53.
T6 peptide: DGCLDDLCSRKVSRKSSS
Nature of the assay: ELISA on peptides of the GPC1 peptide library.

Assay [6] concerns the target T7, human glypican-4 (GPC4) (human, UniProt O75487 19-529, limits assumed).
T7 construct: Named through 'human GPC1 through GPC6' in the methods; also called human GPC4; other human glypican members
T7 sequence (looked up): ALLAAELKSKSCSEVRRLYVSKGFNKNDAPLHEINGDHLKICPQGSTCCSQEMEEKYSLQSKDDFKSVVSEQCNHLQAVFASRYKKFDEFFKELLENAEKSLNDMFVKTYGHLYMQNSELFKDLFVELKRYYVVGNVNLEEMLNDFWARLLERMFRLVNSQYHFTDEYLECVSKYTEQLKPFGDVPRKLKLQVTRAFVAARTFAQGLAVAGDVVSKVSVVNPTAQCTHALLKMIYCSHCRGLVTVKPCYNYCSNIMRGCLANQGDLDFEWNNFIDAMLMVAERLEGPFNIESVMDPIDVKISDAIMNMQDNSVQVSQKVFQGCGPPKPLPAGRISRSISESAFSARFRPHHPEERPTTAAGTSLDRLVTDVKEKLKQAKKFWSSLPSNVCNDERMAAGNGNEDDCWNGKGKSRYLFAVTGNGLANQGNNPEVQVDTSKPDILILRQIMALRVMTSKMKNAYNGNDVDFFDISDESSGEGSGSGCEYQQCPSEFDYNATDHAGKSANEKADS
Put plainly: ELISA, plate coated with human GPC4. As for the experimental part: (§1) Mouse hybridoma supernatant containing 1 µg/ml of each mAb was incubated with plates coated with human GPC1 through GPC6 purchased from R&D Systems. Binding was detected with a goat anti-mouse IgG conjugated with horseradish peroxidase (HRP) (Jackson ImmunoResearch). […] Binding was detected with an anti-FLAG HRP-conjugated antibody (Sigma-Aldrich). […] Recombinant human GPC1-hFc protein at concentrations of 5 µg/ml and 1 µg/ml were then added to the plate.
(An ELISA detects its analyte on a solid surface through an enzyme-linked reagent.)

The target in the next assay is T8, His-tagged GPC1 protein (human, UniProt P35052 24-530, limits assumed).
T8 construct: Immobilised on a Ni-NTA biosensor for the Octet measurement of HM2; also called human GPC1; not shown: His tag
T8 sequence (looked up): T1 sequence (looked up)
Nature of the assay: Octet (BLI), His-tagged GPC1 on Ni-NTA biosensor, HM2 in solution. The protocol:
(§2) Data analysis was performed using the FortéBio analysis software.
(BLI is a label-free optical method that tracks binding on a fibre tip over time.)

Assay [7] concerns the target T7, human glypican-4 (GPC4). Nature of the assay: ELISA on human GPC4, anti-FLAG detection. As for the experimental part:
as §1

Another assay addresses T9, mouse GPC1 protein (mouse, UniProt Q9QZF2 24-529, limits assumed).
T9 sequence (looked up): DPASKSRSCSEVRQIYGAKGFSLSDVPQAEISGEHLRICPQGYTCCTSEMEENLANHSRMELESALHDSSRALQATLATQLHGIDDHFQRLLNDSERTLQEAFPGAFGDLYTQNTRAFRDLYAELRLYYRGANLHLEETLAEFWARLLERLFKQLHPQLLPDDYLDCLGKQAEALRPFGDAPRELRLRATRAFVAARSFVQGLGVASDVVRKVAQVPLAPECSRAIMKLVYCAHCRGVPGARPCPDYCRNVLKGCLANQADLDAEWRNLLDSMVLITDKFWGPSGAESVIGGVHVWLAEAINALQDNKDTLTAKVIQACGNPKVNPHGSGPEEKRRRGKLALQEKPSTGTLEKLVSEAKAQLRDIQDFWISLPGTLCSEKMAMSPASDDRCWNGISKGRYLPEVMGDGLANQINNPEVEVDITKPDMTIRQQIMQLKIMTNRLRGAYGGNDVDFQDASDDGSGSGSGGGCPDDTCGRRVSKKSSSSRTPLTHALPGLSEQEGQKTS
Nature of the assay: monoclonal phage ELISA on plate-coated mouse GPC1.

For the next assay, the target named is T10, GPC1 peptide 15.
T10 peptide: LYYRGANLHLEETLAEFW
Put plainly: ELISA on peptides of the GPC1 peptide library.

The target in a further assay is T11, GPC1 peptide 14.
T11 peptide: FRDLYSELRLYYRGANLH
Nature of the assay: ELISA on peptides of the GPC1 peptide library.

For assay [8], the target named is T2, human glypican-2 (GPC2). Put plainly: monoclonal phage ELISA on plate-coated glypicans.
The target in assay [9] is T3, human glypican-3 (GPC3). Nature of the assay: monoclonal phage ELISA on plate-coated glypicans.
In assay [10] the target is T4, human glypican-5 (GPC5). Nature of the assay: monoclonal phage ELISA on plate-coated glypicans.
For assay [11], the target named is T5, human glypican-6 (GPC6). Put plainly: monoclonal phage ELISA on plate-coated glypicans.
Assay [12] has as its target T12, recombinant human GPC1-hFc protein (human, UniProt P35052 24-530, limits assumed).
T12 construct: Analyte in the Octet measurement of D4; not shown: human Fc (hFc)
T12 sequence (looked up): T1 sequence (looked up)
Put plainly: Octet (BLI), His-tagged D4 on Ni-NTA biosensor, serially diluted human GPC1-hFc in solution. As for the experimental part:
as §2

Assay [13] has as its target T1, human GPC1 on cells (T3M4, KLM1, H8, 2B9) (human). Nature of the assay: cell-based or functional assay.

What is called Kd is the free concentration of one partner at which half of the binding sites on the other are occupied at equilibrium, for simple one-to-one binding.

With Neg ctrl (antibody), the MFI in assay [1] was 7.

B1: HM2 mouse monoclonal antibody (antibody, V domains shown)
VH: EVQLQQSGAELVRPGASVKLSCTASGFNIKDDYMHWVKQRPEQGLEWIGWIDPENGDTEYASKFQGKATITADTSSNTAYLQLSSLTSEDTAVYYCTRSSVGYWGQGTTLTVSS
VL: DVVMTQTPLSLPVSLGDQASISCRSSQSLVHSNGNTYLHWYLQKPGQSPKLLIYKVSNRFSGVPDRFSGSGSGTYFTLKISRVEAEDLGVYFCSQRTHVPYTFGGGTKLEIK
notes: Mouse monoclonal antibody (detected with goat anti-mouse IgG); also called HM2 mAb; HM2 clone
As for B1, the binding result is recorded as “no binding (tested: 1 µg/ml)” with human glypican-2 (GPC2) [2]; “no binding (tested: 1 µg/ml)” in the assay with human glypican-3 (GPC3) [3]; “no binding (tested: 1 µg/ml)” with human glypican-5 (GPC5) [4]; “no binding (tested: 1 µg/ml)” in the assay with human glypican-6 (GPC6) [5]; “binds” with GPC1 peptide 53; “no binding (tested: 1 µg/ml)” in the assay with human glypican-4 (GPC4) [6]. This molecule also returned a Kd with His-tagged GPC1 protein of 0.4 nM.

B2: D4 camel single-domain antibody (VHH)
VHH: QVQLVESGGGLVQPGGSLRLSCVASGYSYSIGYMAWFRQAPGKERAWVASRYTGDGGAVFDDAVKGRFTTSQESAGNTFDLQMDSLKPEDTAMYYCAAKGPGFGRWEYWGRGTQVTVSS
notes: the methods describe D4 at 1 ug/ml detected with anti-FLAG; also called D4 antibody; D4 clone; not shown: FLAG and His tags (detected with anti-FLAG; 'His-tagged D4')
For B2, the binding result with human glypican-4 (GPC4) [7] was “no binding (tested: 1 µg/ml)”; with mouse GPC1 protein it was “binds”; with GPC1 peptide 15 it was “binds”; with GPC1 peptide 14, “binds”; with human glypican-2 (GPC2) [8], “no binding (tested: 1 µg/ml (per paragraph 203; not on the sheet))”; in the assay with human glypican-3 (GPC3) [9], “no binding (tested: 1 µg/ml (per paragraph 203; not on the sheet))”. Besides, the binding result with human glypican-5 (GPC5) [10] and with human glypican-6 (GPC6) [11] was “no binding (tested: 1 µg/ml (per paragraph 203; not on the sheet))” each time. Further, in assay [12], the Kd is 0.7 nM.

B3: D4-IgG4 hinge-CD28 TM CAR (protein)
chain: HMQVQLVESGGGLVQPGGSLRLSCVASGYSYSIGYMAWFRQAPGKERAWVASRYTGDGGAVFDDAVKGRFTTSQESAGNTFDLQMDSLKPEDTAMYYCAAKGPGFGRWEYWGRGTQVTVSSTSESKYGPPCPPCPFWVLVVVGGVLACYSLLVTVAFIIFWVKRGRKKLLYIFKQPFMRPVQTTQEEDGCSCRFPEEEEGGCELRVKFSRSADAPAYQQGQNQLYNELNLGRREEYDVLDKRRGRDPEMGGKPRRKNPQEGLYNELQKDKMAEAYSEIGMKGERRRGKGHDGLYQGLSTATKDTYDALHMQALPPR
Consider B3, for which, in assay [13], the cytolytic activity against T3M4 cells, difference to D4-IgG4 hinge-CD8 TM CAR T cells stood at 10% and the killing ability at high E:T ratio is 91.6%.
